Experimental data: patent US20240287484

Tests used:
Details in all cases: qPCR; 3 mM MgCl2, 37 C
[1] = tested on: T1, MG153-28 RT (uncultivated organism (metagenomic))
T1 sequence: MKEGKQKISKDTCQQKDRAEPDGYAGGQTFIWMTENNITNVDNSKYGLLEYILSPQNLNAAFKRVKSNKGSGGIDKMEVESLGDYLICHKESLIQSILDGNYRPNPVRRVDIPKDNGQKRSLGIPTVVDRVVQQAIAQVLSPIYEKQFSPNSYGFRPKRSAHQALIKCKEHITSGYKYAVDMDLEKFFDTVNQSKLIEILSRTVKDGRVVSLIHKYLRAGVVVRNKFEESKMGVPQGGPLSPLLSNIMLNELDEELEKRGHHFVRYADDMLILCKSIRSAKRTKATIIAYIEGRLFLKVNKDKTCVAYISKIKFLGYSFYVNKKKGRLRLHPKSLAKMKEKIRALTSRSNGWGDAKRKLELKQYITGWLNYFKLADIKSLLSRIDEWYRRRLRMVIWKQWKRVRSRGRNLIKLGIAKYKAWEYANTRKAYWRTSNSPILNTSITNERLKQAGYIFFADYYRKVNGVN

[2] = tested on: T2, MG153-19 RT (uncultivated organism (metagenomic))
T2 sequence: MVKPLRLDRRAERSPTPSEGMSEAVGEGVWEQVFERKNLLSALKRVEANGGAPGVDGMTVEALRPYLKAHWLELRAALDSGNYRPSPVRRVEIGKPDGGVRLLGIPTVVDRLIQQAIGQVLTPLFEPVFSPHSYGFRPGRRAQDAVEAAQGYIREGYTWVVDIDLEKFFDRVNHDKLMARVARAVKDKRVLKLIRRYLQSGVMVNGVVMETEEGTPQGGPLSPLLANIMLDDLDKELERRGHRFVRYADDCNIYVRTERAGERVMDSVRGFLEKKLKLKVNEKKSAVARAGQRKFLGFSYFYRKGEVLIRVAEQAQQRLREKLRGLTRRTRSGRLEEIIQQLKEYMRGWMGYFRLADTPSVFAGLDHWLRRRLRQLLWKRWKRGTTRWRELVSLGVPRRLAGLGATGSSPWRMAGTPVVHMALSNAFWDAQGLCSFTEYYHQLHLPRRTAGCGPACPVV

[3] = tested on: T3, MG153-47 RT (uncultivated organism (metagenomic))
T3 sequence: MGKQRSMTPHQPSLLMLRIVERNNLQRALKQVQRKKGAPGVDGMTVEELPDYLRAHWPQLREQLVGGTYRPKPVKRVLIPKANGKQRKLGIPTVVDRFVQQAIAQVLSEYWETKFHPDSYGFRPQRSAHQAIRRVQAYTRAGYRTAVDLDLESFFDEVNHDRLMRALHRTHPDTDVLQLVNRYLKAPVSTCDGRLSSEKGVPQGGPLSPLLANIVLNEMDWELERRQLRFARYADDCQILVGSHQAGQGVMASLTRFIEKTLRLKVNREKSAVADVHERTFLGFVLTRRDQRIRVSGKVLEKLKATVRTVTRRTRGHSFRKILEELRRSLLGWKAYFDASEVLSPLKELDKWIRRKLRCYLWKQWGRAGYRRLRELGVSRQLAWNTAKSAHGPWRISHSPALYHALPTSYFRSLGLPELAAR

[4] = tested on: T4, MG153-11 RT (uncultivated organism (metagenomic))
T4 sequence: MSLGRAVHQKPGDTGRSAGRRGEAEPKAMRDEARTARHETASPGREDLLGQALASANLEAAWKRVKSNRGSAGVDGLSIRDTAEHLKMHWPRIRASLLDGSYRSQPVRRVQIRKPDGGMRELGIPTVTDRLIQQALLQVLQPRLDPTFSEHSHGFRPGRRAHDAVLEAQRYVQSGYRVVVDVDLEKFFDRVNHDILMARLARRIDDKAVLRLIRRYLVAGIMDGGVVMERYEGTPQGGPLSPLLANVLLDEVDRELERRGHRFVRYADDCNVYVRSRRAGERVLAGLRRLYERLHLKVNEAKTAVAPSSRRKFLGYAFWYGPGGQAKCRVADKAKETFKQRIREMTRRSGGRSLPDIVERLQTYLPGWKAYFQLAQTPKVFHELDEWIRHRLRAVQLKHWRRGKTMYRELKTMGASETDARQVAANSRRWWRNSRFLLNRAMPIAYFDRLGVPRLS

[5] = tested on: T5, MG153-32 RT (uncultivated organism (metagenomic))
T5 sequence: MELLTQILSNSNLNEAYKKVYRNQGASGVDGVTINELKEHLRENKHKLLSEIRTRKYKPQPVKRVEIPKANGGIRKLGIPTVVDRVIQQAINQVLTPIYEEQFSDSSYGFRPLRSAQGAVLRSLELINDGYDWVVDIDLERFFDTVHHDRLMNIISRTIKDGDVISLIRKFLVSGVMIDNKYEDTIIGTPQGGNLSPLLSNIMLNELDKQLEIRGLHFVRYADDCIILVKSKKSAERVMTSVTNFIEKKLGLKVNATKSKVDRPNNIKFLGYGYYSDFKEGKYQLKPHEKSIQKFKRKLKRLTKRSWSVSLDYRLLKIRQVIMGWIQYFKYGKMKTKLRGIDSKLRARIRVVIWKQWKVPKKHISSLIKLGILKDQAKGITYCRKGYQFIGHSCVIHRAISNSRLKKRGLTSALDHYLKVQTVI

[6] = tested on: T6, MG153-25 RT (uncultivated organism (metagenomic))
T6 sequence: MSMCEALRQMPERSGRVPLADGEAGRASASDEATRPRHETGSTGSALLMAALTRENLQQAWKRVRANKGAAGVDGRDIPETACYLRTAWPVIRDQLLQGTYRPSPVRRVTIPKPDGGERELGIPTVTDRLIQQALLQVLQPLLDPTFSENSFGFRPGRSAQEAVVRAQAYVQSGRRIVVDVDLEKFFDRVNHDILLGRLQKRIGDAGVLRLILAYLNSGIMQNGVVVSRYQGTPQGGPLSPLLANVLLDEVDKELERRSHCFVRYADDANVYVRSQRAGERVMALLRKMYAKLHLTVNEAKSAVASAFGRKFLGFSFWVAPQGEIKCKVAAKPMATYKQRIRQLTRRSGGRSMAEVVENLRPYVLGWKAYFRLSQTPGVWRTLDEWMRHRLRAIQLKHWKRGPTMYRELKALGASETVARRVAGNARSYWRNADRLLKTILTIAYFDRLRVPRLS

Measured: activity (fold over background)

200 nt RNA template annealed to DNA primer
> 10: all assays above
